Reference: US20040005648A1, “PYK2 related products and methods” (Sugen, Inc., priority 1994, published 2004)

Biological target: Kv1.2-HA (delayed rectifier-type potassium channel Kv1.2 with HA tag) (UniProt P63142)
Assay: cell-based or functional assay

Which inhibition of outward current in Xenopus oocytes, 8 min after the addition of 100 nM PMA does the source give for PYK2 (wild type, full length) here?
The inhibition of outward current in Xenopus oocytes, 8 min after the addition of 100 nM PMA was 95%.
